Measured values published in the DeepSol protein solubility set.

Assay: soluble on expression in E. coli; label from the status in PepcDB or PDB records

Sequence	soluble on expression in E. coli
MSSRAVSLFSKCGSRISQTRGKAHFTFQPSTTLPAGLENLEKTKMNLMQSVNEAMRIAMETDDSAVLFGEDVAFGGVFRCSLDLQKKFGKDRVFNTPLCEQGIAGFGIGVAAAGATAIAEIQFGDYIFPAYDQLVNEAAKFRYRSGNQFDCGKLTVRTTWGAVGHGALYHSQSPEANFTHTPGLKLVVPRGPVQAKGLLLSCIRDPNPCIFFEPKILYRLASEDVPTGDYTIPLGQAETVRSGKDLTLVAWGTQVHVALEAAQLAKEKLNADVEVIDLQTIQPWDEDHVVESVQKTGRLIVTHEAPISSGFGAEIASTVQKRCFLNLESPIDRVAGFDTPFPHVHEPFYLPTVHRVFDAIKKSVNY	not soluble
MSSRIEQIIDEIDEFIESCKFQPLSATKIIVNKEEIEELLRELRLKTPDEIKRYQKIISNKDAILEDAQSKADAIIADAQAKAQELVTQHEIMQKAYAQANDTINAANKQAQEILDSATQDANSIRLSAITYTDDMMANIGSVLNQTLEDAGGKYKGFIDALQSCLDVVNHNRQELAPQTAQAAAMTGSYHEEPADAPEEDSLLDDLGEE	not soluble
MSSSSESDSEGERKLPLSYRRKRRRDSSSTTNSEVSDNDRKKRQNEKRRSRESSKMKHQKTAKRDKPMWKEEGEISCDSESDVCNSSSSNNRSRCRDRRRRTDYGRRRHRNSDSRSHERWSTRRRQTTPEGNFRCDECGCNHYTLKGLIHHEMNDHNLNAKCHLCQKSFENKKTFREHCELDHTPEVVRCVFCKSSFDQPLEMNDEQWAHFFAHIYGEILYSRLADYEDRALNTA	not soluble
MSSTAAKKDVKSSAVPVTAVVEKKEFEEEEFEEFPVQEWAERAEGEEDDVNVWEDNWDDETHESEFSKQLKEELRKSGHQVA	not soluble
MSSTALLPPNTDQVLSRRLHGKAAEKKTGLAAIASKDVDEQSRKLQEYFEFWDRNHENESEEDRARRIDGYKSVVNSYYDLATDLYEYGWSQSFHFSRFYKGEAFAQSIARHEHYLAYRMGIKPGSRVLDVGCGVGGPAREITEFTGCNLVGLNNNDYQISRCNNYAVKRNLDKKQVFVKGDFMHMPFEDNTFDYVYAIEATVHAPSLEGVYGEIFRVLKPGGVFGVYEWVMSDDYDSSIPKHREIAYNIEVGDGIPQMVRKCDAVEAIKKVGFNLLEEDDLTDHDNPDLPWYYPLTGDITKCQNIWDVFTVFRTSRLGKLVTRYSVQFLEKIGVAAKGTSKVGDTLAIAQKGLIEGGETHLFTPMFLMIAKKPETDA	soluble
MSTCSDESCDKECPLCMETLELDDINFYPCKCEYQICRFCWHRIRTDENGLCPACRQPYPEDPVNFKPMTTDDVRKHKDEQRLKKQAEKLKLSDARQYLCNYRVLQKNLVYVVGLSPRVADPEILKKNEYFGRYGKIQKIVTSATPSLPAPHLPPSHTAYVTYKRVDDALRAIQGVHNSMLDGRLVKASLGTTKYCSSFLNSRKCFKPVGECMYLHENAEAEISFTKDDMHLGKHTEYEKRLIESMNSRPPPPQSTLASQLDKILAPTSNSPRRYLEDDSDTVDDVERTGSAIHMCADDPDDDDADSTNTSNSIDDPAPSNPADETVNSRRSNQTARERQWSERDEISVAPSNTPPTDPEGNENEFEEDIHRNDVSDLMSKLDVNDDRLARTSFSENDYLGIPAPAKHQEAPAPLMQWEALLGLSSPSAQSTIVEPSSLFPTFKMDSGFNSQSLFGTHTSSTPSFRREASPPPGLARFNSDDDLGFDPFTESSKGLSALLQEEQEQIPPHNSASNHTLDVLKQLFGQLPEQRQSTQQHPQHLQSSHQQHPLQQNQDQHHSFLHQLHAQQQHQQQQFAADMNRQQDYMYSRLMSQQQQQSQQQRQFDSTPGFSHPFGSMQQQQQSSQQQQHQSQSSQSSSLLQDLFNRQQQQHQAQQQAQQHQQQQMYAGINSYMYNDMLMPRVPFGMAPPPGLGGPSTNRSSTTQQAPPHMTQQSQQQQQQQQSSMGLFGMGGHQSMMQDHQSQQPQSAQDAFKALLPNVNVRFMDDNSMSRWSHENSLRSSAVPPPPGFSSVMNR	not soluble
MSTDKITFLLNWQPTPYHIPIFLAQTKGYFKEQGLDMAILEPTNPSDVTELIGSGKVDMGLKAMIHTLAAKARGFPVTSVASLLDEPFTGVLYLKGSGITEDFQSLKGKKIGYVGEFGKIQIDELTKHYGMKPEDYTAVRCGMNVAKYIIEGKIDAGIGIECMQQVELEEYLAKQGRPASDAKMLRIDKLACLGCCCFCTVLYICNDEFLKKNPEKVRKFLKAIKKATDYVLADPVKAWKEYIDFKPQLNNDLSYKQYQRCYAYFSSSLYNVHRDWKKVTGYGKRLAILPPDYVSNYTNEYLSWPEPEEVSDPLEAQRLMAIHQEKCRQEGTFKRLALPA	soluble
MSTEQANGTTIEEKKDKVAEVTEKLDNLAVDTTNEANDAKQPARRGGFRGRGRGRGRGGHFYQPRPPYEDQMKKLEEDLASKKVIETGVKGHVKWFSVRGRYGFVARDKPTDENEDFFVHQTAITKSSTIKFYLRTLDDDEPVVFDIVEGLKGPEAANVTGPDGENVRGSRFARTLLTHWRTRGRGGARGRGGRGRGAPRQTRDQDGDEKDEKEKSDTIENSGDGETRGKRRTRRHGKLQPDAPSGEKGDGDAAAATTDAAPAAEKKKKRQRKGNKEPTTTTEQKEETAAPAKA	not soluble
MSTGANRILDDLARLMTDAAGAAQGVRREVEAAFRAQTENWLNSLDVVKREEFEAVKEMAARARDENDALLARIEALEARLAATGPAAADITTGK	not soluble
MSTHFDVIVVGAGSMGMAAGYQLAKQGVKTLLVDAFDPPHTNGSHHGDTKIIRHAYGEGREYVPLALRSQELWYELEKETHHKIFTKTGVLVFGPKGESAFVAETMEAAKEHSLTVDLLEGDEINKRWPGITVPENYNAIFEPNSGVLFSENCIRAYRELAEARGAKVLTHTRVEDFDISPDSVKIETANGSYTADKLIVSMGAWNSKLLSKLNLDIPLQPYRQVVGFFESDESKYSNDIDFPGFMVEVPNGIYYGFPSFGGCGLKLGYHTFGQKIDPDTINREFGVYPEDESNLRAFLEEYMPGANGELKRGAVCMYTKTLDEHFIIDLHPEHSNVVIAAGFSGHGFKFSSGVGEVLSQLALTGKTEHDISIFSINRPALKESLQKTTI	soluble
MSTIKIVPLGGVRENGKNMYVAEVEDEIFVLDCGLQYPENELLGIDVVIPDFTYLEENSERIAGVFLTHGHADAIGALPYLLSKIQVPVFGTELTIELAKLSVNSHAETKKFKDFHVIDPHTEIDFGQATVSFFKTTHTIPDSIGVSIKTKEGNIVYTGDFKFDQSAIEMYQTDYGRLAEIGKEGVLALLSDSSNAENPAQVASEAQIADEVFDTIRYWEGRIIVACVASNLQRVQQVLNAADRSGRKVVLTGQDFERIIRTAMKLEKLQLPSEDLLVKPKEMKKYAPEQLLILETGRMGEPIKSLQKMANNTHGVVRIEEGDLVYITTTPTTAMETTVAKTEDIVYRAGATVKQISDNLRVSGHANPNDLQLMLNLMKPKYFIPVQGEYRQLAAHADLAHEIGMPYKDIFITGRGDILEYTKGRMSVAGSTTAENIMIDGIGVGDIGNIVLRDRRILSEDGIFVAVVTINRREKRIVSPAKITSRGFVYVKTSKDLMKESSNIVTEIVEKHLESDDFEWSKLKQEIRENLSRYLFEQTKRRPVILPVIMEATQRKRPKNNA	not soluble
MSTKEEITKEIEEQGAEVRRVKGDKNSTEEAKKEAIDKLLALKLTYKEVTGQEYAAPNARQSKPKKEEKPKQQPKQQEKKQDGKKQTLLGVGTKKDDNYSEWYSEVITKAEMIEYYDVSGCYVLRPWSFAVWESIQEWFDSGIKKLGVKNCYFPMFVSNAALEREKTHIADFAPEVAWVTRAGNSEMAEPIAIRPTSETVMYPSYKKWVQSHRDLPIKLNQWCNVVRWEFKHPTPFLRTREFLWQEGHTAFANPADAEKEVFQILDLYAGVYTDLLAIPVVKGRKSEKEKFAGGDFTTTVEAYVACNGRGIQGATSHHLGQNFSKMFDISYEDPAKEGERAFAWQNSWGLSTRTIGAMVMIHGDDKGLVLPPRVAAVQVIVVPVGFKTENKQSLFDAVDKVTKDLVADGVKAEHDLRENYNAGWKFNHWELKGVPIRFEVGPNDLAKNQVTAVIRHNGEKKQLSLEGLSKTVKSLLDEIHTAMYNKVLAQRDSHLKSTTCIEEFKKLLDEKCIILSPFCGRPDCEEEIKKASTREDGEGAQMGAKTLCIPLDQPKQELPSKCLFPSCTYNAKAFALFGRSY	not soluble
MSTKLYYIYDPMCSWCWGYRPVWDLLQQHLPKSIDVEYVAGGLAPDSDSAMPIDQQQMIQNHWRTIEQKLGTKFNYDFWRENTARRSTYNACRAAIAAHKQSCQKAMIDAIQQAYYLRALNPSDVDVLVSVAKELSEQTSPTLDVAQFIVDINSSETNKELAKQVTLARELTQQGFPSLVLDVDGVIQQIPLDYSDYKTTLAYIIKKTS	not soluble
MSTKPAAAKTKPSCSEGGDLRVETENGETFITATQRADGTWRKARRVKGGYIPQDEQPKYQNKMQLEATNGRSSVPAGVNPRAMASGSSRKPVSAIKANVCITPQDHFQKKIDLTKKKIEDIEGMESRIASGELVPQPNQVKKIARKQEYLDEIEKLTLEMKKL	not soluble
MSTKSIATSSTASSSSSHHQEHTVTELIMFFTSEEPPEPEPFSRSTEKSGIRTSKVITRTITISAETKLKMDLLEEQRREKRVKLEIEKSRIRAENLQRMQEISSEPKTRGSKRSLMRRAAKRTKGRISSLLIRDSSVDSGSITDKALKDKKRGLSLEWEVKDQGRFAESFSDSRLMEMFQHPSGMPIEPDVMMEGYLYKRSSNAFKTWNRRWFQIKDKQLLYSHRSTDLEPATIMEENLRICLVRPAPSNIDRIGCFELVTPTRIHLLQADSESLCQDWMRALQRTILALHEGDSVDVASTSPRNKTTSMSSGVTLTSANAISPLSNAMDVTKGRSVSDPASTYTSANTSSISTAAGFSSSTTAFEQVRRVPGNEVCADCGSPAPKWVSINLGVVLCIECSGAHRSLGVQTSKVRSLCMDSIDNELRDVLLALGNRQVNEIFLAHLPPADSIVPPQINEKSARPAREAWIKAKYVERRFAVAEDTRARSSATNRQEHLKHKTSIGGNSSSNGVNRSSSYADVQDAESGGLLDADPWSADLSVPVPTASKRLSACGSDTNLDAIGSSSIDTKTVEWDSVKEACECGDLLALMTAYAQGFDLNALHNGTTALHIATRNGQTAAVEFLLLNGAKINMLDEKLNTPLHLAAKEGHTLPVCQLLKRGADSNLANVDSKTPLDIAMECTHADIVTLFRVTIMRNDFNADFNNPMDETVEAVISDIARRAATEKEQKKTESLKSTSDI	not soluble
MSTLIECGASPFIPGFALKDVRLENGLTVRVAIGGSGSPLVLLHGHPQNHTTWRKVAPTLAQNHTVILPDLRGYGDSDKPTSDPAHRTYSKRTMAQDIVMLMDALGFSRFAFVGHDRGGRVGHRLALDYPDRVTCCTFIDIAPTATMYALTDKSFATRYFWWFFLIQPFPLPETMIAHDPAFFLRKHISGQLKIEGATSQEAFNEYLRCYQNPEMIHAICEDYRAAATIDLDDDAADTSARIRCPLQLLWGGLGTVGQLYNVVGTWKEKALNVQGEALPCGHSPQEECPEYFIQKLQSFLHSVL	soluble
MSTPRTVLVVGGGAAGNAVTILLRRAGLTVDLVEAKDDWNATAGSGITLQGNALRVLRELGVWEQVEASGFGFGSVGITTPDGTVLHVQDDLRTGGDDLPATVGMQRPRLQQILIEAVRASGASVRLGTTAEILDQDSDGVHVRLSDGSEHRYDLVVAADGLGSATRAAIGITDKPEPTGMAIWRIAAPRPAGLTRTDLAYGGPAHIAGYCPTGETTLYAYVVEANRDRAGIPPASYADEMRGLTRHYGGFWPDITEHITDPAKVNYTWFDRLLVEGSWHRGRVVLVGDAAHCCPPTLAQGAALSLEDAWVLAQMLTGSDVWDDALFQAYYERRIARVRPVVAASVQIGQWQLDGVRDADLPGLMGRTMTMLRELPLEHHHHHH	not soluble
